Key:
[1] = target: T1, Cbz-Phe-ALeu-trans-EP-CH2CH2Ph
T1 chain: FL

[2] = target: T2, Cbz-Ala-Ala-AAsn-(2R, 3R)-EP-COOEt
T2 chain: AAN

[3] = target: T3, Cbz-Leu-AHph-(2S, 3S)-EP-COOEt
T3 chain: LX

[4] = target: T4, Cbz-Ala-Ala-NHN(CH2COOEt)-trans-EP-COOEt
T4 chain: AAD

[5] = target: T5, Cbz-Leu-ALeu-(2S, 3S)-EP-COOEt
T5 chain: LL

[6] = target: T6, Cbz-Asp-Glu-Val-AAsp-(2S, 3S)-EP-COOEt (not fully specified)
T6 chain: DEVD

[7] = target: T7, Cbz-Leu-ALeu-trans-EP-COOEt
T7 chain: LL

[8] = target: T8, Ac-Leu-AHph-trans-EP-COOEt
T8 chain: LX

[9] = target: T9, Cbz-Leu-Leu-ALeu-(2R, 3R)-EP-COOEt
T9 chain: LLL

[10] = target: T10, Cbz-Asp-Glu-Val-AAsp-(2R, 3R)-EP-COOEt (not fully specified)
T10 chain: DEVD

[11] = target: T11, Boc-Nle-AHph-trans-EP-COOEt
T11 chain: XX

[12] = target: T12, Cbz-Ala-Ala-AAsn-trans-EP-COOEt
T12 chain: AAN

[13] = target: T13, PhPr-Val-Ala-AAsp-trans-EP-CH2CH2Ph
T13 chain: VAD

[14] = target: T14, Ac-Leu-ALeu-trans-EP-COOEt
T14 chain: LL

[15] = target: T15, Cbz-Leu-Leu-ALeu-(2S, 3S)-EP-COOH
T15 chain: LLL

[16] = target: T16, Ac-AHph-trans-EP-COOEt
T16 chain: X

[17] = target: T17, Cbz-APhe-trans-EP-COOEt
T17 chain: F

[18] = target: T18, Cbz-Phe-ALeu-trans-EP-COOEt
T18 chain: FL

[19] = target: T19, Cbz-Leu-ALeu-(2R, 3R)-EP-COOEt
T19 chain: LL

[20] = target: T20, Cbz-Leu-ALeu-cis-EP-COOEt
T20 chain: LL

[21] = target: T21, Cbz-ALeu-trans-EP-COOEt
T21 chain: L

[22] = target: T22, Cbz-Leu-AHph-cis-EP-COOEt
T22 chain: LX

[23] = target: T23, Cbz-Leu-Phe-AGln-trans-EP-COOEt
T23 chain: LFQ

[24] = target: T24, Boc-Np2-ALeu-trans-EP-COOEt
T24 chain: XL

[25] = target: T25, Cbz-Leu-Glu-Thr-AAsp-(2R, 3R)-EP-COOEt
T25 chain: LETD

[26] = target: T26, Cbz-Leu-Leu-ALeu-(2S, 3S)-EP-COOEt
T26 chain: LLL

[27] = target: T27, Cbz-Leu-AHph-(2R, 3R)-EP-COOEt
T27 chain: LX

[28] = target: T28, Cbz-APhe-trans-EP-CH2CH2Ph
T28 chain: F

[29] = target: T29, Cbz-Phe-APhe-trans-EP-CH2CH2Ph
T29 chain: FF

[30] = target: T30, Boc-Nva-AHph-trans-EP-COOEt
T30 chain: XX

[31] = target: T31, Cbz-AHph-trans-EP-COOEt
T31 chain: X

[32] = target: T32, Cbz-Leu-AAbu-trans-EP-COOEt
T32 chain: LX

[33] = target: T33, Boc-Nle-AHph-trans-EP-CH2CH2Ph
T33 chain: XX

[34] = target: T34, Suc-Np2-ALeu-trans-EP-COOEt
T34 chain: XL

[35] = target: T35, Boc-Abu-AHph-trans-EP-CH2CH2Ph
T35 chain: XX

[36] = target: T36, Cbz-Leu-Glu-Thr-AAsp-(2S, 3S)-EP-COOEt
T36 chain: LETD

[37] = target: T37, Cbz-Leu-Leu-ALeu-trans-EP-COOEt
T37 chain: LLL

[38] = target: T38, PhPr-Val-Ala-AAsp-trans-EP-COOCH2Ph
T38 chain: VAD

[39] = target: T39, Cbz-Ala-Ala-AAsn-cis-EP-COOEt
T39 chain: AAN

[40] = target: T40, Cbz-Ala-Ala-AAsn-(2S, 3S)-EP-COOEt
T40 chain: AAN

[41] = target: T41, Cbz-Leu-AAbu-trans-EP-COOH
T41 chain: LX

B1: papain (protein)
chain: IPEYVDWRQKGAVTPVKNQGSCGSCWAFSAVVTIEGIIKIRTGNLNEYSEQELLDCDRRSYGCNGGYPWSALQLVAQYGIHYRNTYPYEGVQRYCRSREKGPYAAKTDGVRQVQPYNEGALLYSIANQPVSVVLEAAGKDFQLYRGGIFVGPCGNKVDHAVAAVGYGPNYILIKNSWGTGWGENGYIRIKRGTGNSYGVCGLYTSSFYPVKN
[1]
  kobs/[I]: 0.7 M⁻¹ s⁻¹
[2]
  kobs/[I]: 3 M⁻¹ s⁻¹
[3]
  kobs/[I]: 5.68 M⁻¹ s⁻¹
[4]
  kobs/[I]: 8.17 M⁻¹ s⁻¹
[5]
  kobs/[I]: 10.5 M⁻¹ s⁻¹
[6]
  kobs/[I]: NI
[7]
  kobs/[I]: 6.37 M⁻¹ s⁻¹
[8]
  kobs/[I]: 1.9 M⁻¹ s⁻¹
[9]
  kobs/[I]: 20.6 M⁻¹ s⁻¹
[10]
  kobs/[I]: NI
[11]
  kobs/[I]: 1.6 M⁻¹ s⁻¹
[12]
  kobs/[I]: 0.9 M⁻¹ s⁻¹
[13]
  kobs/[I]: NI
[14]
  kobs/[I]: 2.09 M⁻¹ s⁻¹
[15]
  kobs/[I]: 6.93 M⁻¹ s⁻¹
[16]
  kobs/[I]: 26.9 M⁻¹ s⁻¹
[17]
  kobs/[I]: 8.5 M⁻¹ s⁻¹
[18]
  kobs/[I]: 0.91 M⁻¹ s⁻¹
[19]
  kobs/[I]: 6.7 M⁻¹ s⁻¹
[20]
  kobs/[I]: 0.38 M⁻¹ s⁻¹
[21]
  kobs/[I]: 16.1 M⁻¹ s⁻¹
[22]
  kobs/[I]: 1.03 M⁻¹ s⁻¹
[23]
  kobs/[I]: 0.9 M⁻¹ s⁻¹
[24]
  kobs/[I]: 3.9 M⁻¹ s⁻¹
[25]
  kobs/[I]: 0.24 M⁻¹ s⁻¹
[26]
  kobs/[I]: 10.5 M⁻¹ s⁻¹
[27]
  kobs/[I]: 2.16 M⁻¹ s⁻¹
[28]
  kobs/[I]: 0.92 M⁻¹ s⁻¹
[29]
  kobs/[I]: 0.5 M⁻¹ s⁻¹
[30]
  kobs/[I]: 1.4 M⁻¹ s⁻¹
[31]
  kobs/[I]: 18.8 M⁻¹ s⁻¹
[32]
  kobs/[I]: 4.94 M⁻¹ s⁻¹
[33]
  kobs/[I]: 0.5 M⁻¹ s⁻¹
[34]
  kobs/[I]: 1.39 M⁻¹ s⁻¹
[35]
  kobs/[I]: 0.2 M⁻¹ s⁻¹
[36]
  kobs/[I]: 0.47 M⁻¹ s⁻¹
[37]
  kobs/[I]: 34.8 M⁻¹ s⁻¹
[38]
  kobs/[I]: < 10 M⁻¹ s⁻¹
[39]
  kobs/[I]: NI
[40]
  kobs/[I]: 4 M⁻¹ s⁻¹
[41]
  kobs/[I]: 1.47 M⁻¹ s⁻¹

— patent US20040048327
